Measured values: US20080112926A1 (PROTAFFIN BIOTECHNOLOGIE, published 2008)
Numbering of substitutions follows the chain as printed.

B1: IL-8 mutant Δ6 F17RF21R E70RN71K (ligand)
chain: CQCIKTYSKPRHPKRIKELRVIESGPHCANTEIIVKLSDGRELCLDPKENWVQRVVEKFLKRARKS
notes: Δ6 means the first 6 N-terminal amino acids are deleted
B2: IL-8 mutant Δ6 F17RF21R E70K (ligand)
chain: B1 chain with R64K, K65N
notes: as for B1

Molecular target: the molecule itself
Experiment: fluorescence anisotropy with bis-ANS in PBS, self-association (dimerisation), no GAG
Procedure: By recording the concentration dependent fluorescence anisotropy of the chemokine resulting from the extrinsic chromophore bisANS it was aimed to find out the dimerisation constant of the mutants. Measurements were performed in PBS starting with high concentrations (up to 4 μM protein) followed by stepwise dilution. For each data point, the anisotropy signal (r) recorded at 507 nm was averaged over 60 sec.
IL-8 oligomerisation has been reported to relevantly influence the proteins GAG binding properties. Set at monomeric concentration, IL-8 bound size defined oligosaccharides 1000-fold tighter than at dimeric concentration. Therefore, the oligomerisation properties of IL-8 mutants were investigated by fluorescence anisotropy. Since the IL-8 intrinsic fluorophore (Trp57) was not sensitive enough for all of the mutants, the extrinsic fluorophore bis-ANS was used for these measurements. […] The mutant with the highest koligo(koligo=460 nM), which therefore dimerised worst, was Δ6 F17RF21R E70RN71K. […] Also the impact of heparan sulphate addition was observed.

Protein | koligo (oligomerisation constant)
B1 | 460 nM
B2 | 147 nM
